experiment: yeast display, Sf9 membrane polyspecificity reagent, FACS + sequencing; frameworks hold sequencing errors
Summary of the method: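 Synthetic nanobody libraries on Saccharomyces cerevisiae BJ5465 were galactose-induced for 36–48 hours, stained 1 hour at 4 °C with 10% biotinylated, detergent-solubilized Sf9 membrane reagent and enriched on streptavidin microbeads. FACS then separated cells into low and high (top ~1%) gates by anti-HA (expression) and streptavidin (reagent binding) fluorescence. Genes were colony-PCR amplified, MiSeq 2 × 250 sequenced and CDR-length filtered. A clone's polyreactivity label is that of its gate of origin.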

Sequence | polyreactivity (PSR sort gate)
QVQLVESGGGLVQAGGSLRLSCAASGRIFWYYTMGWYRQAPGKERELVAAISNGGSTYYADSVKGRFTISRDNAKNTVYLQMNSLKPEDTAVYYCAAVGARGGYFRMDYWGQGTQVTVSS | high polyreactivity
QVQLVESGGGLVQAGGSLRLSCAASGRIFYANAMGWYRQAPGKERELVAAISSGGSTYYADSVKGRFTISRDNAKNTVYLQMNSLKPEDTAVYYCAALYWVYFYSEYGPWRYDYWGQGTQVTVSS | low polyreactivity
QVQLVESGGGLVQAGGSLRLSCAASGRIFYDNAMGWYRQAPGKERELVAAISYSGDSTYYADSVKGRFTISRDNAKNTVYVQMNSLKPEDTAVYYCAAVYISQGAFAYDYWGQGTQVTVSS | low polyreactivity
QVQLVESGGGLVQAGGSLRLSCAASGRIFYENAMGWYRQAPGKDRELVAAISGSGGSTYYADSVKGRFTISRDNAKNTVYLQMNSLKPEDTAVYYCNAYRRVPGYDYWGQGTQVTVSS | high polyreactivity
QVQLVESGGGLVQAGGSLRLSCAASGRIFYEYAMGWYRQAPGKDRELVAAISNSGGSTYYAHSVKGRFTISRDNAKNTVYLQMNSLQPEDTAVYYCAATVRLPNGVRYGYWGQGTQVTGSS | high polyreactivity
QVQLVESGGGLVQAGGSLRLSCAASGRIFYFNAKGGYRQAPGKERELVAAIRNDTRTYYADSVKGRFTISRDNAKNTVYLQLNSLKPEDTAVYYCAARVYFSVITPIKYNYWGQGTQVTVSS | high polyreactivity
QVQLVESGGGLVQAGGSLRLSCAASGRIFYFNAMGWYRQAPGKEREFVASINSIGDSTYYADSVKGRFTISRDYAKNTVYLQMNRLKPEDTAVYYCNADHGVINYRLDYWGQGTQVTVSS | low polyreactivity
QVQLVESGGGLVQAGGSLRLSCAASGRIFYFNAMGWYRQAPGKERELVAAISWSGSRTFYADSVTGRFTISRDNAKNTVYLQMNSLKPEDTAVYYCAVRGYMWNAGNTIRRDYWGQGTQVTVSS | high polyreactivity
QVQLVESGGGLVQAGGSLRLSCAASGRIFYFYALGWYRQAPGKERDLVAAINIGGSTNYADSVKGRFTISRDNAKNTVYLQMNSLNPEDTAVYYCNAEAYSRSDYYRYDYWGQGTQVTVSS | low polyreactivity
QVQLVESGGGLVQAGGSLRLSCAASGRIFYFYAMGWYRQAPGKERELVAAITGSAGGTYYADSVKGRFTISRDNAKNTVYLQMNSLKPEDTAVYYCNAGSTRYWRSRYDYWGQGTQVTVSS | low polyreactivity
QVQLVESGGGLVQAGGSLRLSCAASGRIFYFYAMGWYRQAPGKERELVASISSGSSTNYADSVKGRFTISRDNAKNTVYLQMNSLKPEDTAVYYCAAQPWHGSRPRSYYWGQGTQVTVSS | high polyreactivity
QVQLVESGGGLVQAGGSLRLSCAASGRIFYFYAMGWYRQAPGKERELVASISYSGGNTYYADSVKGRFTISRDNAKNTVYLQMNSLKPEDNAVYYCNVLPNTGARGYYYWGQGTQVTVSS | low polyreactivity
QVQLVESGGGLVQAGGSLRLSCAASGRIFYGNTMGWYRQAPGKERELVAAITWRGGSTYYADSVKGRFTISRDNAKNTVYLQMNSLKPEVTAVYYCAAVSYRGRGYWGQGTQVTVSS | high polyreactivity
QVQLVESGGGLVQAGGSLRLSCAASGRIFYGYAIGWYRQAPGKEREFVARINVSGTSTFYADSVKGRFTISRDNAKNTVYLQMTSLKPEDTAVYDCAARGLPSNDYYYVHGYIMDYWGQGTQVTVSS | low polyreactivity
QVQLVESGGGLVQAGGSLRLSCAASGRIFYGYARGWYRQAPGKERELVATITWSGGSTYYADSVKGRFTISRDNAKNTVYLQMNSLNPEDTAVYYCAAYSPYIYQAYRYDYWGQGTQVTVSS | low polyreactivity
QVQLVESGGGLVQAGGSLRLSCAASGRIFYGYTMGWARQAPGKERQLVAAITWSGGSTYYADSVKGRFTISRDNAKYSVYLQMNSLKPKDTAVYYCAATLGNAADYDYGYWGQGTQVTVSS | high polyreactivity
QVQLVESGGGLVQAGGSLRLSCAASGRIFYGYTMGWYRQAPGKERELVASITIRGSRTYYADSVKGRFTISRDNAKNSVYLQMNSLKPEDTAVYYCAADFVPARTVHRYDYWGQGTQVTVSS | low polyreactivity
QVQLVESGGGLVQAGGSLRLSCAASGRIFYGYVMGWYRQAPGKETELVAAMTWSGSRTYYADSVKGRFTISRDNAKNTVYLQMNSLKPEDTAVYYCAARIPSDGYSYWGQVTQVTVSS | high polyreactivity
QVQLVESGGGLVQAGGSLRLSCAASGRIFYHNTMGWYRQAPGKEREFVAAISKRGGNTYYADSVKGRFTISRDNAKNTVYLQMNSLKPEDTAVYYCNRRNAWSRGEYWGQGTQVTVSS | high polyreactivity
QVQLVESGGGLVQAGGSLRLSCAASGRIFYKYVMGWDRQAPGKERELVADINRSGGTTYYADSVKGRFTISRDNAKNTVYLQMNSLKPEDTAVYYCTATLPDYWPYYYYQGGDDYWGQGTQVNVSS | low polyreactivity

Sequence | polyreactivity (PSR sort gate)
QVQLVESGGGLVQAGGSLRLSCAASGRIFYLNAMGWYRQAPGKERELVAVITGNAGSTYYADSVKGRFTISRDNAKNTVYLQMNSLKPEDTAVYYCNALRLVPWSDALYDYWGQGTQVTVSS | low polyreactivity
QVQLVESGGGLVQAGGSLRLSCAASGRIFYLYAMGWYRQAPGKERELVAAISVSGARTYYADSVKGRFTISRDNAKNNVYLQMNSLKPEDTAVYYCATVGPYRSRRAGDYWGQGTQVTVSS | high polyreactivity
QVQLVESGGGLVQAGGSLRLSCAASGRIFYLYAMGWYRQAPGKERELVAAITWSGGSTTYADSVKGRFTISRDNAKNTVYLQMNSLKPEDTAVYYCNADGWIFPSFSPMDYWGQGTQVTVSS | low polyreactivity
QVQLVESGGGLVQAGGSLRLSCAASGRIFYLYAMGWYRQAPGKERELVATISGSGGSTYYADSVKGRFTISRDNAKNTVYLLMISLKPEDTAVYYCAAVSVSSWYDYWGQGTQVSVSS | low polyreactivity
QVQLVESGGGLVQAGGSLRLSCAASGRIFYLYAMGWYRQAPGTEREMVAAITWSGGSTTYADSVKGRFTISRDNAKNTVYLQMNSLKPEDTAVYYCYADGWIFPSFSPMDYWGQGTQVTVSS | low polyreactivity
QVQLVESGGGLVQAGGSLRLSCAASGRIFYLYARGWYRQAPGKERELVATISSSGGRTYYADSVKGRFTISRDNAKNTVYLQMNSLKPEDTAVYYCNAYGEDDGPYPFPGYNYWGQGTQVTVSS | low polyreactivity
QVQLVESGGGLVQAGGSLRLSCAASGRIFYNYAMGWYRQAPGKETELVAAISGSGGSTYYADSVKGRFTISRDNAKNTVYLLMNSLKPEDTAVYYCSTSGQQYYSRNFDYWGQGTQVTVSS | low polyreactivity
QVQLVESGGGLVQAGGSLRLSCAASGRIFYNYVMGWYRQAPGKERELVAAISSSGGSTYYADSVKGRFTISRDNAKNSVYLQMNSLKPEDTAVYYCSAETYQLTWVLYYYWGQGTQVTVSS | high polyreactivity
QVQLVESGGGLVQAGGSLRLSCAASGRIFYPNAMGWYRQAPGKERELVAGISRSGGSTYYADSVKGRFTISRDNAKNTVYLQMNSLKPEVTAVFYCAARYYASDRHFRGDYWGQGTQVTVSS | low polyreactivity
QVQLVESGGGLVQAGGSLRLSCAASGRIFYPYAMGWYRQAPGKERDLVAAIRRSGVDTYYADSVKGRFTISRDNAKNTVYLQMNSLKPEDTAVYYCNKDGGGDSYWYDYWGQGTQVTVSS | low polyreactivity
QVQLVESGGGLVQAGGSLRLSCAASGRIFYPYAMGWYRQAPGKERELVAAIRWSSGNTRYADSVKGRFTISRDNAKNTVYLQMNSLKPEDTAVYYCAAPAVHILQTVSLTPRPLDYWGQGTQVTVSS | high polyreactivity
QVQLVESGGGLVQAGGSLRLSCAASGRIFYPYAMGWYRQAPGKERELVAAISRSGGSTYYADTVKGRFTISRDNAKNTVYLQMNSLKPEDTAVYYCAAEVVYFYSDAHIGYVDYEYWGQGTQVTVSS | low polyreactivity
QVQLVESGGGLVQAGGSLRLSCAASGRIFYPYAMGWYRQAPGKERELVALISWGGGSTYYADSVKGRFTISRDNAKNTVYLQMNSLKPEDTAVYYCAASYVGYWYRRGYGYWGQGTQVTVSS | high polyreactivity
QVQLVESGGGLVQAGGSLRLSCAASGRIFYPYAMGWYRQAPGTERELVATITRTGSTYYADSVKGRFTISRDNAKNTVYLQMNSLKPEDTAVYDCAVQRSYVGPRQYNYWGQGTQVTVSS | high polyreactivity
QVQLVESGGGLVQAGGSLRLSCAASGRIFYQYAMGWYRQAPGKERELVAAIRYRDDGTYYADSVKGRFTISRDNAKNTVYLQMNSLQPEDTAVYYCAAKQWGRYGYWGQGTQVTVSS | high polyreactivity
QVQLVESGGGLVQAGGSLRLSCAASGRIFYRNAMGWYRQAPGKERELVAAISYSGGRTYYADSVKGRFTISRDNAKNTVYLQMNSLKPEDTAVFYCAARYAWGYVDPGDYWGQGTQVTVSS | high polyreactivity
QVQLVESGGGLVQAGGSLRLSCAASGRIFYRNAMGWYRQAPGKERELVAAITSGGSTYYADSVKGRFTISRDNAKNTVYLQMNSLKPEDTAVYYCAAAYQRWFNRRDYWGQGTQVTVSS | high polyreactivity
QVQLVESGGGLVQAGGSLRLSCAASGRIFYRYAMGWYRQAPGKERELVAAINKSGGSTYYADSVKGRFTISRDNGKNTVSLQMKSLKPEDTAVYYCTAVYYWYKGDYWGQGTQVTVSS | high polyreactivity
QVQLVESGGGLVQAGGSLRLSCAASGRIFYRYAMGWYRQAPGKERELVAAIRSGGRTNYADSVKGRFTISRDNAKNTVYLQMNSLKPEDTAVYYCNAVWRYYRKRRAGDFGYWGQGTQVTVSS | low polyreactivity
QVQLVESGGGLVQAGGSLRLSCAASGRIFYRYAMGWYRQAPGKERELVAAISRNGGSTNYADSVKGRFTISRDNAKNTVYLQMNSLKPEDTAVYYCAARPPTTRPYDYDYWGQGTQVTVSS | high polyreactivity
